Test results as given in article PMC6949303.

Experiments:
[1] = target: Human monoclonal Sus11-IgE (human); assay: SPR; Biacore X100, CM5 chip, HBS-EP+, 10 μl/min; anti-IgE Le27 immobilised (3000 RU), 30 nM Sus11-IgE captured (~100 RU); 1.56–25 nM antibodies/fragments injected 120 s, dissociation 240 s; 1:1 langmuir fit
[2] = target: Biotinylated JW8-IgE (human); assay: ELISA; FcεRIα immobilised at 30 nM; biotinylated JW8-IgE titrated (60–0.001 nM) or 0.78 nM pre-incubated 30 min with anti-IgE antibodies (0.0078–600 nM); streptavidin-HRP

Row | Kd [1] [nM] | koff [1] [s⁻¹] | kon [1] [M⁻¹ s⁻¹] | fold higher potency than omalizumab in inhibiting IgE binding to FcεRIα [2] [fold] | Binder
1 | 0.0178 | 3.3e-05 | 1.8e+06 | 20 | Ligelizumab IgG (antibody, V domains shown) VH: QVQLVQSGAEVMKPGSSVKVSCKASGYTFSWYWLEWVRQAPGHGLEWMGEIDPGTFTTNYNEKFKARVTFTADTSTSTAYMELSSLRSEDTAVYYCARFSHFSGSNYDYFDYWGQGTLVTVSS VL: EIVMTQSPATLSVSPGERATLSCRASQSIGTNIHWYQQKPGQAPRLLIYYASESISGIPARFSGSGSGTEFTLTISSLQSEDFAVYYCQQSWSWPTTFGGGTKVEIK
2 | 0.035 | 0.00032 | 9.2e+06 | – | Ligelizumab Fab (Fab, V domains shown) VH: QVQLVQSGAEVMKPGSSVKVSCKASGYTFSWYWLEWVRQAPGHGLEWMGEIDPGTFTTNYNEKFKARVTFTADTSTSTAYMELSSLRSEDTAVYYCARFSHFSGSNYDYFDYWGQGTLVTVSS VL: EIVMTQSPATLSVSPGERATLSCRASQSIGTNIHWYQQKPGQAPRLLIYYASESISGIPARFSGSGSGTEFTLTISSLQSEDFAVYYCQQSWSWPTTFGGGTKVEIK
3 | 0.0121 | 5.1e-05 | 4.2e+06 | – | Ligelizumab F(ab′)2 (protein) VH: QVQLVQSGAEVMKPGSSVKVSCKASGYTFSWYWLEWVRQAPGHGLEWMGEIDPGTFTTNYNEKFKARVTFTADTSTSTAYMELSSLRSEDTAVYYCARFSHFSGSNYDYFDYWGQGTLVTVSS VL: EIVMTQSPATLSVSPGERATLSCRASQSIGTNIHWYQQKPGQAPRLLIYYASESISGIPARFSGSGSGTEFTLTISSLQSEDFAVYYCQQSWSWPTTFGGGTKVEIK
